2 molecules from article PMC10651859, “Aptamer-based gold nanoparticle aggregates for ultrasensitive amplification-free detection of PSMA” can be followed below.

The target in series [1] is T1, hrPSMA (human recombinant Prostate Specific Membrane Antigen, Sinobiological) (human, UniProt Q04609 44-750). Nature of the series: AuNP aggregate disassembly (DLS size and count rate, plasmon shift); size change significant above 50 pM, count rate from 500 fM; detection thresholds, not Kd; 1x PBS pH 7.4; 37 C for 30 min stated for the initial 50 pM hrPSMA screening. As to conditions: protein: commercial; chain copies: 2; label: 13 nm gold nanoparticles on Rev1 and Rev2; aPSMA 1-16 paired with Rev1, 17-30 with Rev2; 3' aptamer portion single-stranded; many copies per aggregate.

Series [2] deals with PSMA on intact LNCaP SEVs (human? (LNCaP cells), UniProt Q04609 1-750). Description: AuNP aggregate disassembly (plasmon peak shift); intact SEVs; 1x PBS pH 7.4; 37 C for 30 min stated for the initial 50 pM hrPSMA screening. As to conditions: protein: native; chain copies: 2; label: 13 nm gold nanoparticles on Rev1 and Rev2; Control 1-16 paired with Rev1, 17-30 with Rev2; 3' portion single-stranded; many copies per aggregate.

The target of series [3] is T1, hrPSMA (human recombinant Prostate …). Nature of the series: AuNP aggregate disassembly (DLS); hrPSMA series; no significant trend; 1x PBS pH 7.4; 37 C for 30 min stated for the initial 50 pM hrPSMA screening. As to conditions: protein: commercial; chain copies: 2; label: 13 nm gold nanoparticles on Rev1 and Rev2; Control 1-16 paired with Rev1, 17-30 with Rev2; 3' portion single-stranded; many copies per aggregate.

T1 sequence (Q04609 44-750): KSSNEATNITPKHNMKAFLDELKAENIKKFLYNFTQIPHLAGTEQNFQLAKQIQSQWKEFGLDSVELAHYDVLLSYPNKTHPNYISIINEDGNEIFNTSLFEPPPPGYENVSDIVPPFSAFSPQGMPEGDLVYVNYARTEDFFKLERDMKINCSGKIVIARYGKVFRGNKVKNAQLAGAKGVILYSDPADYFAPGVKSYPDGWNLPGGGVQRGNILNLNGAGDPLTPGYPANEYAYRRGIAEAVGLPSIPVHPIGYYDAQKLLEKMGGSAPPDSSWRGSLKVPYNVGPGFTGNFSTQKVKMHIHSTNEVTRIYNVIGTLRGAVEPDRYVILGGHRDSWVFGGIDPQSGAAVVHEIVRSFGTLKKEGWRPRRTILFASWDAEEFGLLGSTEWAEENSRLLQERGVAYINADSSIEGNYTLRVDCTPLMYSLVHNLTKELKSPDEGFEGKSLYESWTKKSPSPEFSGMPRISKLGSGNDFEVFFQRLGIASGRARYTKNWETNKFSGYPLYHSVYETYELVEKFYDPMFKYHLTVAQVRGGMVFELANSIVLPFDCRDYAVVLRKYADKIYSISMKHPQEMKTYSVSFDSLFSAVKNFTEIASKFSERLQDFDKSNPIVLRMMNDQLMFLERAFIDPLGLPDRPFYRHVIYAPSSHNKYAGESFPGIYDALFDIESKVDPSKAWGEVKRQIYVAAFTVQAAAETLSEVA
Chain of PSMA on intact LNCaP SEVs (Q04609 whole entry): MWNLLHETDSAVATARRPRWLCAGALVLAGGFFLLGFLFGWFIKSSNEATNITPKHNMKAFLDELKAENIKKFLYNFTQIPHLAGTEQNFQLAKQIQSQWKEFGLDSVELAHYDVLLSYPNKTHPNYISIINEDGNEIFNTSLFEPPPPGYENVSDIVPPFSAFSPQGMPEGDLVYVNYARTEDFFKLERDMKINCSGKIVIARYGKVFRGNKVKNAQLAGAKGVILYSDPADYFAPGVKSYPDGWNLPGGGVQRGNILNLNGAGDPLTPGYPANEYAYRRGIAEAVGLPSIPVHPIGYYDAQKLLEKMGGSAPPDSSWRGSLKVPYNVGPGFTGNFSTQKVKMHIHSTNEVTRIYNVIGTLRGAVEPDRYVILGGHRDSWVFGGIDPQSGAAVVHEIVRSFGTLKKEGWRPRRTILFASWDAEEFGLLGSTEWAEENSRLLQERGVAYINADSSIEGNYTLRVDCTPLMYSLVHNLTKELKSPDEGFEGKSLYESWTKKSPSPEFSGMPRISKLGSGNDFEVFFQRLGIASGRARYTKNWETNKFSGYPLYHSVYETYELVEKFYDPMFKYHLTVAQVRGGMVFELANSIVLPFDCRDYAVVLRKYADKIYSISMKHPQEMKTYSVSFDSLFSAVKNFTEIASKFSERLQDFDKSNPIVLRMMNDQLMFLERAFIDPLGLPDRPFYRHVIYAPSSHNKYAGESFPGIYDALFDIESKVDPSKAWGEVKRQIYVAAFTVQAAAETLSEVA

B1: aPSMA:Rev1:Rev2 (aPSMA-AuNPs-Aggregate) (structured_DNA)
DNA 1: CTGTGACTCATCTGTGAAGGGCGGCGTTTTCGCTTTTGCGTTTTGGGTCATCTGCTTACGATAGCAATGCT
DNA 2: CACAGATGAGTCACAG
DNA 3: AAAACGCCGCCCTT
modifications: Rev1 3' C3 thiol; Rev2 5' C6 thiol
Turning to B1, in series [1], the binding result is given as “binds”.

B2: Control:Rev1:Rev2 (C-AuNPs-Aggregate) (structured_DNA)
DNA 1: CTGTGACTCATCTGTGAAGGGCGGCGTTTTATATGTTACCGTCTAAGTACTCTGTTCCGCGCCGTGTGTTG
DNA 2: CACAGATGAGTCACAG
DNA 3: AAAACGCCGCCCTT
modifications: Rev1 3' C3 thiol; Rev2 5' C6 thiol
As for B2, the binding result in series [2] and in series [3] was “no binding” in each case.
